The results in this text go back to patent US20220162261A1 (published 2022).

Read-outs that look alike come from different tables or passages of the source. Numbered stars: 1 amine (or outer) side, 2 acyl side, 3 side chain; on linkers, the order of the positions; unused ones are H or OH. Bridge positions count the residues as written; N and C are the ends. Square brackets hold non-standard residues; d marks the D form. Asp(OMe) = L-aspartic acid beta-methyl ester, COC(=O)C[C@H](N[*:1])C(=O)[*:2]; Phe(3,4-Cl2) = N[C@@H](Cc1ccc(Cl)c(Cl)c1)C(=O)O; Phe(4-tBu) = CC(C)(C)c1ccc(C[C@H](N)C(=O)O)cc1; Phe(2,4-Cl2) = N[C@@H](Cc1ccc(Cl)cc1Cl)C(=O)O; NMeR = CN[C@@H](CCCNC(=N)N)C(=O)O; Pen = CC(C)(S)[C@H](N)C(=O)O; βAla = NCCC(=O)O

Assay [1] has as its target T1, rh integrin α4β7 (R&D Systems #5397-A30) (human, UniProt P13612 34-970; P26010 20-723).
T1 construct: bought; coated on a nickel coated plate; also called immobilized α4β7; immobilized α4β7 integrin protein
As to the kind of experiment: competition ELISA vs MAdCAM-1.

For assay [2], the target named is T2, human α4β7 integrin on cells (human, UniProt P13612 34-1032; P26010 20-798).
T2 construct: whole, on cells; also called α4β7 cell (Hu); RPMI8866 cells
The assay can be described thus: RPMI8866 cell adhesion to MAdCAM-1.

Assay [3] addresses T3, α4β1 (R&D Systems #5668-A4) (UniProt P13612 34-970; P05556 21-728, limits assumed).
T3 construct: bought; also called soluble α4β1
As to the kind of experiment: competition ELISA vs VCAM-1. Background: In an ELISA, binding on a coated surface is turned into a signal by an enzyme label.

In assay [4] the target is T1, rh integrin α4β7 (R&D Systems #5397-A30). The assay can be described thus: competition ELISA vs MAdCAM-1. This is another data set of the same source.
Assay [5] deals with T4, human α4β1 integrin on cells (human, UniProt P13612 34-1032; P05556 21-798).
T4 construct: whole, on cells; also called α4β1 cell; Jurkat cells
The assay can be described thus: Jurkat cell adhesion to VCAM-1.

The target of assay [6] is T2, human α4β7 integrin on cells. As to the kind of experiment: RPMI8866 cell adhesion to MAdCAM-1. This is another data set of the same source.

B1: SEQ ID NO: 151 (peptide)
peptide: Ac-[Pen][NMeR]SDTL[Pen][Phe(4-tBu)]-OH
modifications: disulfide 1-7
SMILES: CC(=O)N[C@@H]1C(=O)N(C)[C@@H](CCCNC(=N)N)C(=O)N[C@@H](CO)C(=O)N[C@@H](CC(=O)O)C(=O)N[C@@H]([C@@H](C)O)C(=O)N[C@@H](CC(C)C)C(=O)N[C@H](C(=O)N[C@@H](Cc2ccc(C(C)(C)C)cc2)C(=O)O)C(C)(C)SSC1(C)C
As to B1, the values for the half-inhibitory concentration (IC50) in assay [1] and in assay [2] were over 10 nM and over 50 nM, respectively.

B2: SEQ ID NO: 197 (peptide)
peptide: Ac-CRSDTLCGEK-NH2
modifications: disulfide 1-7 (inferred); also: dimer linked by PEG25, attachment not given here
notes: also called peptide 197
In the case of B2, the IC50 (usually the concentration that inhibits the measured activity by half) in assay [3] was 964 nM; in assay [4] it was 36 nM; in assay [5], over 100000 nM; in assay [6], 301 nM.
Ac-C[NMeR]SDTLCGEK-OH (disulfide 1-7 (inferred); also: dimer linked by DIG, attachment not given here, also called peptide 201) [SEQ ID NO: 201]: the concentration for half-maximal inhibition (IC50) in assay [3] amounted to 1240 nM; in assay [4], 1 nM; in assay [6], 28 nM.
For Ac-C[NMeR]SDTLCGE-NH2 (disulfide 1-7 (inferred), also called peptide 198) [SEQ ID NO: 198], the IC50 was 1290 nM in assay [3], 20 nM in assay [4], over 100000 nM in assay [5] and 1120 nM in assay [6].
With Ac-CRSDTLC-NH2 (disulfide 1-7 (inferred), also called peptide 195) [SEQ ID NO: 195], the values for the half-maximal inhibitory concentration (IC50) in assay [3], in assay [4] and in assay [6] were 2880 nM, 97 nM and 1220 nM, respectively.

B3: SEQ ID NO: 206 (peptide)
peptide: Ac-[Pen]RSDTLC[dK]-NH2
modifications: disulfide 1-7
SMILES: CC(=O)N[C@@H]1C(=O)N[C@@H](CCCNC(=N)N)C(=O)N[C@@H](CO)C(=O)N[C@@H](CC(=O)O)C(=O)N[C@@H]([C@@H](C)O)C(=O)N[C@@H](CC(C)C)C(=O)N[C@H](C(=O)N[C@H](CCCCN)C(N)=O)CSSC1(C)C
notes: also called peptide 206
In assay [4], B3 gave an IC50 of 97 nM.
For Ac-[Pen]RSDTLC[dK]-NH2 (disulfide 1-7; also: homodimer via DIG linker on D-Lys8 side chains, also called peptide 207) [SEQ ID NO: 207], the IC50 in assay [4] is 26 nM; in assay [6] it was 49 nM.
In the case of Ac-CRSDTLCGEK-NH2 (disulfide 1-7 (inferred), also called peptide 196) [SEQ ID NO: 196], the IC50 in assay [3] is 4810 nM; in assay [4] it was 87 nM; in assay [5] it was over 100000 nM; in assay [6], 6660 nM.
For the molecule Ac-[Pen][NMeR]S[Asp(OMe)]TL[Pen]WE[dK]-NH2 (disulfide 1-7; also: Biotine, site of attachment not given here) [SEQ ID NO: 69], the half-maximal inhibitory concentration (IC50) in assay [1] is over 10 nM; in assay [2] it was over 100 nM.

B4: SEQ ID NO: 73 (peptide)
peptide: Ac-[Pen][NMeR]S[Asp(OMe)]TL[Pen]WE[dK]-NH2
modifications: disulfide 1-7; not fully specified (residue 10); printed as (Ac Pen N-Me-R S D(OMe) T L Pen W E k NH2)2 DIG, disulfide Pen-Pen; also: homodimer: two subunits linked by DIG via D-Lys10 side chain
For B4, the IC50 in assay [1] and in assay [2] was at most 10 nM in each case.

B5: SEQ ID NO: 144 (peptide)
peptide: cyclo([Pen][NMeR]SDTL[Pen]WE)
modifications: disulfide 1-7
SMILES: CC(C)C[C@@H]1NC(=O)[C@H]([C@@H](C)O)NC(=O)[C@H](CC(=O)O)NC(=O)[C@H](CO)NC(=O)[C@H](CCCNC(=N)N)N(C)C(=O)[C@H]2NC(=O)[C@H](CCC(=O)O)NC(=O)[C@H](Cc3c[nH]c4ccccc34)NC(=O)[C@@H](NC1=O)C(C)(C)SSC2(C)C
As to B5, the figures for the half-maximal inhibitory concentration (IC50) in assay [1] and in assay [2] were 364 nM and over 10000 nM, respectively.

B6: SEQ ID NO: 43 (peptide)
peptide: Ac-[Pen][NMeR]SDTL[Pen][Phe(3,4-Cl2)]E[dK]-NH2
modifications: disulfide 1-7; not fully specified (residue 10); printed as (Ac Pen N-Me-R S D T L Pen F(3,4-diCl) E k NH2)2 DIG, disulfide Pen-Pen; also: dimer, two subunits joined by DIG linker
Take B6: the results for the IC50 in assay [1] and in assay [2] were at most 10 nM and over 10 nM, respectively.

B7: SEQ ID NO: 202 (peptide)
peptide: Ac-C[NMeR]SDTL[Pen][dK]-NH2
modifications: disulfide 1-7
SMILES: CC(=O)N[C@H]1CSSC(C)(C)[C@@H](C(=O)N[C@H](CCCCN)C(N)=O)NC(=O)[C@H](CC(C)C)NC(=O)[C@H]([C@@H](C)O)NC(=O)[C@H](CC(=O)O)NC(=O)[C@H](CO)NC(=O)[C@H](CCCNC(=N)N)N(C)C1=O
Regarding B7, the IC50 in assay [3] was 1620 nM; in assay [4], 87 nM; in assay [5], over 100000 nM; in assay [6], 11000 nM.
On to Ac-CRSDTLCGE-NH2 (disulfide 1-7 (inferred), also called peptide 194) [SEQ ID NO: 194], for which the IC50 in assay [3] was determined as 2020 nM; in assay [4], 97 nM; in assay [6] it was 590 nM.

B8: SEQ ID NO: 49 (peptide)
peptide: Ac-[Pen][NMeR]SDTL[Pen]WEP[dK]-NH2
modifications: disulfide 1-7
SMILES: CC(=O)N[C@@H]1C(=O)N(C)[C@@H](CCCNC(=N)N)C(=O)N[C@@H](CO)C(=O)N[C@@H](CC(=O)O)C(=O)N[C@@H]([C@@H](C)O)C(=O)N[C@@H](CC(C)C)C(=O)N[C@H](C(=O)N[C@@H](Cc2c[nH]c3ccccc23)C(=O)N[C@@H](CCC(=O)O)C(=O)N2CCC[C@H]2C(=O)N[C@H](CCCCN)C(N)=O)C(C)(C)SSC1(C)C
In the case of B8, the IC50 in assay [1] was over 10 nM.

B9: SEQ ID NO: 53 (peptide)
peptide: H-[βAla][Pen][NMeR]SDTL[Pen]W[dE]-NH2
modifications: disulfide 2-8
SMILES: CC(C)C[C@@H]1NC(=O)[C@H]([C@@H](C)O)NC(=O)[C@H](CC(=O)O)NC(=O)[C@H](CO)NC(=O)[C@H](CCCNC(=N)N)N(C)C(=O)[C@@H](NC(=O)CCN)C(C)(C)SSC(C)(C)[C@@H](C(=O)N[C@@H](Cc2c[nH]c3ccccc23)C(=O)N[C@H](CCC(=O)O)C(N)=O)NC1=O
Take B9: the half-maximal inhibitory concentration (IC50) in assay [1] was over 10 nM.

B10: SEQ ID NO: 42 (peptide)
peptide: Ac-[Pen][NMeR]SDTL[Pen][Phe(2,4-Cl2)]E[dK]-NH2
modifications: disulfide 1-7; not fully specified (residue 10); printed as (Ac Pen N-Me-R S D T L Pen F(2,4-diCl) E k NH2)2 DIG, disulfide Pen-Pen; also: dimer, two subunits joined by DIG linker
As for B10, the concentration for half-maximal inhibition (IC50) in assay [1] and in assay [2] was at most 10 nM in each case.
Consider XRSDTLXWE (Cyclo [Pen N-Me-R S D T L Pen W e]; disulfide Pen-Pen) [SEQ ID NO: 145], for which the figures for the 50% inhibitory concentration (IC50) in assay [1] and in assay [2] were 504 nM and over 10000 nM, respectively.

B11: SEQ ID NO: 52 (peptide)
peptide: H-[βAla][Pen][NMeR]SDTL[Pen]WE-NH2
modifications: disulfide 2-8
SMILES: CC(C)C[C@@H]1NC(=O)[C@H]([C@@H](C)O)NC(=O)[C@H](CC(=O)O)NC(=O)[C@H](CO)NC(=O)[C@H](CCCNC(=N)N)N(C)C(=O)[C@@H](NC(=O)CCN)C(C)(C)SSC(C)(C)[C@@H](C(=O)N[C@@H](Cc2c[nH]c3ccccc23)C(=O)N[C@@H](CCC(=O)O)C(N)=O)NC1=O
As to B11, the IC50 in assay [1] is over 10 nM; in assay [2], over 100 nM.
On to Ac-C[NMeR]SDTLCGEK-OH (disulfide 1-7 (inferred), also called peptide 199) [SEQ ID NO: 199], for which the IC50 was over 100000 nM in assay [3], 58 nM in assay [4] and 4690 nM in assay [6].

B12: SEQ ID NO: 200 (peptide)
peptide: Ac-C[NMeR]SDTLCK-OH
modifications: disulfide 1-7 (inferred); also: dimer linked by PEG25, attachment not given here
notes: also called peptide 200
In the case of B12, the half-inhibitory concentration (IC50) was 16700 nM in assay [3], 3 nM in assay [4], over 100000 nM in assay [5] and 96 nM in assay [6].
For XRSDTLXWK (Ac Pen N-Me-R S D T L Pen W k NH2; disulfide Pen-Pen, also called peptide 208) [SEQ ID NO: 208], the results for the half-inhibitory concentration (IC50) in assay [4] and in assay [6] were 30.5 nM and 412 nM, respectively.
For Ac-C[NMeR]SDTL[Pen]E[dK]-NH2 (disulfide 1-7; also: homodimer via DIG linker on D-Lys9 side chains, also called peptide 205) [SEQ ID NO: 205], the IC50 is 444 nM in assay [3], 2.4 nM in assay [4] and 26 nM in assay [6].
